Experimental data from patent publication US20230181748A1 (VIB VZW, published 2023).

Molecular target: preformed, sonicated Aβ aggregates (UniProt P05067 672-713)
Test: cell-based or functional assay

Chain of preformed, sonicated Aβ aggregates (P05067 672-713): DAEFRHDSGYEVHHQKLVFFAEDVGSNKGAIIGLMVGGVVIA

Binder: KLWFFAGSGAPIGL [AbCap_25]
- aggregation seeding capacity of Aβ in Aβ biosensor cells (IC50): 1.42 µM
